Data: FireProtDB (doi:10.1021/bi012113g)
“And” between values parts separate entries of the source, which are not always exact repeats. Identical values can stand only once.

Conditions: Vibrio harveyi; pH 7; 25 °C; Urea; CD; NaH2PO4/K2HPO4 50 mM; transition: 4; whole UniProt chain shown

B1: Alkanal monooxygenase alpha chain wild type, P07740 (protein)
chain: MKFGNFLLTYQPPELSQTEVMKRLVNLGKASEGCGFDTVWLLEHHFTEFGLLGNPYVAAAHLLGATETLNVGTAAIVLPTAHPVRQAEDVNLLDQMSKGRFRFGICRGLYDKDFRVFGTDMDNSRALMDCWYDLMKEGFNEGYIAADNEHIKFPKIQLNPSAYTQGGAPVYVVAESASTTEWAAERGLPMILSWIINTHEKKAQLDLYNEVATEHGYDVTKIDHCLSYITSVDHDSNRAKDICRNFLGHWYDSYVNATKIFDDSDQTKGYDFNKGQWRDFVLKGHKDTNRRIDYSYEINPVGTPEECIAIIQQDIDATGIDNICCGFEANGSEEEIIASMKLFQSDVMPYLKEKQ
In the case of B1, the unfolding free energy is reported as 4.5 kcal/mol and 2.8 kcal/mol.
